Consider five molecules from US20070149456A1, “Epithelial sodium channel inhibiting agents and uses therefor” (University of Pittsburgh, priority 2005, published 2007).

“Also recorded” adds a separate entry of the source.

Assay [1] addresses T1, endogenous ENaC in HAE cells (Homo sapiens, UniProt P37088+P51168+P51170).
T1 construct: endogenous in cells; host or cells: primary human airway (bronchial) epithelial cells from transplant or donor lungs
The experiment in a line: Amiloride-sensitive short circuit current in primary human airway epithelial (HAE) cell monolayers, Ussing chamber. The format is cell-based. As to conditions: HAE. The source says:
Primary Cultures of HAE Cells—HAE cells were obtained from excess pathological tissue remaining after lung transplantation or from organ donor lungs deemed not suitable for transplantation under a protocol approved by the University of Pittsburgh […] Review Board. All cells were isolated from second through sixth generation bronchi and grown on permeable Transwell supports (Coming Inc.) as previously described (Devor, D. C., and Pilewski, J. M. (1999), UTP inhibits Na^+ absorption in wild-type and DeltaF508 CFTR-expressing human bronchial epithelia, Am. J. Physiol. 276, C827-C837 31. ).
(§1) Short Circuit Current Measurements—Cell culture inserts were mounted in modified Ussing chambers (Harvard Apparatus, Holliston, Mass.), and the monolayers were continuously short-circuited with a voltage/current clamp system (Physiologic Instruments, San Diego, Calif.). A 2-mV bipolar pulse was applied periodically to measure the resistance of the monolayer. As previously described by Bridges et al. (Bridges, R. J., Newton, B. B., Pilewski, J. M., Devor, D. C., Poll, C. T., and Hall, R. L. (2001), Na+ transport in normal and CF human bronchial epithelial cells is inhibited by BAY 39-9437, Am. J. Physiol. 281, L16-L23 32, Na^+ transport in normal and CF human bronchial epithelial cells is inhibited by BAY 39-9437), the bath solution contained (in mM) 120 NaCl, 25 NaHCO3, 3.3 KH2PO4, 0.8 K2HPO4, 1.2 MgCl2, 1.2 CaCl2, and 10 glucose. The pH of this solution was 7.4 when gassed with a mixture of 95% O2-5% CO2 at 37° C.
Primary cultures of HAE cells grown on permeable membrane supports and mounted in modified Ussing chambers were continuously short-circuited by a voltage clamp amplifier (Physiologic Instruments, San Diego, Calif.). Monolayers were exposed to increasing concentrations of either the γ-peptide (closed circles) or a scrambled peptide (open circles). […] (n=8-9).
Vectors and Cell Culture—Wild-type, C-terminal and double epitope tagged mouse ENaC subunit cDNAs were previously described (Hughey, R. P., Mueller, G. M., Bruns, J. B., Kinlough, C. L., Poland, P. A., Harkleroad, K. L., Carattino, M. D., and Kleyman, T. R. (2003) J Biol Chem 278, 37073-37082 and Ahn, Y. J., Brooker, D. R., Kosari, F., Harte, B. J., Li, J., Mackler, S. A., and Kleyman, T. R. (1999), Cloning and functional expression of the mouse epithelial sodium channel, Am J Physiol 277, F121-129). The γ subunit mutations were generated in pcDNA3.1 (+) using a standard two-step PCR method. A cDNA clone (IMAGE #: 3600399) encoding full length mouse prostasin was obtained from Open Biosystems (Huntsville, Ala.) and sub-cloned into pcDNA3.1 (+) (Invitrogen, Carlsbad, Calif.). MDCK type 1 cells were a gift from Barry M. Gumbiner (Memorial Sloan-Kettering Cancer Center, New York) and were cultured as previously described (Lavelle, J. P., Negrete, H. O., Poland, P. A., Kinlough, C. L., Meyers, S. D., Hughey, R. P., and Zeidel, M. L. (1997), Low permeabilities of MDCK cell monolayers: a model barrier epithelium, Am J Physiol 273, F67-75). CCD (mpkCCDc14) cells were a gift from Alain Vandewalle (Institut National de la Santéet de la Recherche Médicale, Paris, France) and were cultured as previously described (Bens, M., Vallet, V., Cluzeaud, F., Pascual-Letallec, L., Kahn, A., Rafestin-Oblin, M. E., Rossier, B. C., and Vandewalle, A. (1999) J Am Soc Nephrol 10, 923-934). HAE cells were isolated and cultured as described (Devor, D. C., Bridges, R. J., and Pilewski, J. M. (2000), Pharmacological modulation of ion transport across wild-type and DeltaF508 CFTR-expressing human bronchial epithelia, Am J Physiol Cell Physiol 279, C461-479). […]

Assay [2] deals with T2, endogenous ENaC in mpkCCDc14 cells (Mus musculus, UniProt Q61180+Q9WU38+Q9WU39).
T2 construct: endogenous ENaC in a mouse cortical collecting duct (mpkCCDc14) cell line; endogenous in cells; host or cells: mpkCCDc14 mouse cortical collecting duct cell line
The experiment in a line: Amiloride-sensitive short circuit current in mpkCCDc14 monolayers, Ussing chamber. The class given is cell-based. As to conditions: mpkCCDc14, increasing concentrations of peptide. The protocol: mpkCCDc14 Cell Culture—mpkCCDc14 cells were grown as previously reported (Bens, M., Vallet, V., Cluzeaud, F., Pascual-Letallec, L., Kahn, A., Rafestin-Oblin, M. E., Rossier, B. C., and Vandewalle, A. (1999), Corticosteroid-dependent sodium transport in a novel immortalized mouse collecting duct principal cell line, J. Am. Soc. Nephrol. 10, 923-934). mpkCCDc14 cells were subcultured onto permeable filter supports coated with collagen (0.4-μm pore size, 1-cm^2 surface area, Snapwell filters; Coming Inc., Acton, Mass.). Cells were kept on filters for at least 4 days in defined medium (Bens, M., Vallet, V., Cluzeaud, F., Pascual-Letallec, L., Kahn, A., Rafestin-Oblin, M. E., Rossier, B. C., and Vandewalle, A. (1999) J. Am. Soc. Nephrol. 10, 923-934 30) that was changed every second day. At least 24 h prior to the experiments, the culture medium was replaced with a minimal medium (without drugs or hormones) that contained only Dulbecco's modified Eagle's medium and Ham's F-12.
as §1
(FIG. 6A) mpkCCDc14cells cultured on permeable membrane supports and mounted in a modified Ussing chamber were continuously short-circuited by a voltage clamp amplifier (Physiologic Instruments, San Diego, Calif.). Transepithelial resistance was monitored by applying a 4 mV bipolar pulse every 60 seconds. Where indicated, a 43 residue peptide corresponding to E144-K186 of mouse γ-ENaC (γ-peptide) was added to the apical chamber at a final concentration of 3 μM. […] Data presented as mean +/−standard error (n=8).
Vectors and Cell Culture—Wild-type, C-terminal and double epitope tagged mouse ENaC subunit cDNAs were previously described (Hughey, R. P., Mueller, G. M., Bruns, J. B., Kinlough, C. L., Poland, P. A., Harkleroad, K. L., Carattino, M. D., and Kleyman, T. R. (2003) J Biol Chem 278, 37073-37082 and Ahn, Y. J., Brooker, D. R., Kosari, F., Harte, B. J., Li, J., Mackler, S. A., and Kleyman, T. R. (1999), Cloning and functional expression of the mouse epithelial sodium channel, Am J Physiol 277, F121-129). The γ subunit mutations were generated in pcDNA3.1 (+) using a standard two-step PCR method. A cDNA clone (IMAGE #: 3600399) encoding full length mouse prostasin was obtained from Open Biosystems (Huntsville, Ala.) and sub-cloned into pcDNA3.1 (+) (Invitrogen, Carlsbad, Calif.). MDCK type 1 cells were a gift from Barry M. Gumbiner (Memorial Sloan-Kettering Cancer Center, New York) and were cultured as previously described (Lavelle, J. P., Negrete, H. O., Poland, P. A., Kinlough, C. L., Meyers, S. D., Hughey, R. P., and Zeidel, M. L. (1997), Low permeabilities of MDCK cell monolayers: a model barrier epithelium, Am J Physiol 273, F67-75). CCD (mpkCCDc14) cells were a gift from Alain Vandewalle (Institut National de la Santéet de la Recherche Médicale, Paris, France) and were cultured as previously described (Bens, M., Vallet, V., Cluzeaud, F., Pascual-Letallec, L., Kahn, A., Rafestin-Oblin, M. E., Rossier, B. C., and Vandewalle, A. (1999) J Am Soc Nephrol 10, 923-934).

Assay [3] addresses T2, endogenous ENaC in mpkCCDc14 cells. The description is as above. As to conditions: peptide 50 μM. The class given is cell-based.
Assay [4] addresses endogenous ENaC in the mouse cortical collecting duct cell line mpkCCDc14 (mouse, UniProt Q9WU38 1-638). The experiment in a line: cell-based or functional assay.
Assay [5] deals with endogenous ENaC in primary cultures of human airway epithelial (HAE) cells (human, UniProt P51168 1-640). Nature of the assay: cell-based or functional assay.
In assay [6] the target is wild-type αβγ mouse epithelial sodium channel (ENaC) expressed in Xenopus oocytes (mouse, UniProt Q9WU38 1-638). Nature of the assay: cell-based or functional assay.
Chain of wild-type αβγ mouse epithelial sodium channel (ENaC) expressed in Xenopus oocytes (chain, as listed by the source, chain 1 of 3): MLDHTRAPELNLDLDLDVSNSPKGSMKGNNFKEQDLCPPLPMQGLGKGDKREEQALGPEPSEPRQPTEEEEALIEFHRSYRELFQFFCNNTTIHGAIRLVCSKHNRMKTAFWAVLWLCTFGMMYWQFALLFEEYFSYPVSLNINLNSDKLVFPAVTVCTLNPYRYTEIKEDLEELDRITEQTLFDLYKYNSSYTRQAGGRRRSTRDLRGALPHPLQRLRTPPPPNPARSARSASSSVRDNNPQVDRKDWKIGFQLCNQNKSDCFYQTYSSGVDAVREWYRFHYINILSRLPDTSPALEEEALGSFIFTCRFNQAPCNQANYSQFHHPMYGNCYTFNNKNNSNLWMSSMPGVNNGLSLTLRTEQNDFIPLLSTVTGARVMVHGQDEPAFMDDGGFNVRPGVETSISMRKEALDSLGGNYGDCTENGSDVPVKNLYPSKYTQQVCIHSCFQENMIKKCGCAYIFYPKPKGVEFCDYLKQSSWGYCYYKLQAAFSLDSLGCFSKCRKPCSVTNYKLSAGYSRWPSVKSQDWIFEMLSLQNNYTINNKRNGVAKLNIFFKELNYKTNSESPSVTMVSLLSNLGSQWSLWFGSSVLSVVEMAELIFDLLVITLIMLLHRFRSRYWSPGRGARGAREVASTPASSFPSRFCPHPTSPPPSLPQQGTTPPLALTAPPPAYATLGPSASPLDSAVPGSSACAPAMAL
Chain of wild-type αβγ mouse epithelial sodium channel (ENaC) expressed in Xenopus oocytes (Q9WU38 whole entry, chain 2 of 3): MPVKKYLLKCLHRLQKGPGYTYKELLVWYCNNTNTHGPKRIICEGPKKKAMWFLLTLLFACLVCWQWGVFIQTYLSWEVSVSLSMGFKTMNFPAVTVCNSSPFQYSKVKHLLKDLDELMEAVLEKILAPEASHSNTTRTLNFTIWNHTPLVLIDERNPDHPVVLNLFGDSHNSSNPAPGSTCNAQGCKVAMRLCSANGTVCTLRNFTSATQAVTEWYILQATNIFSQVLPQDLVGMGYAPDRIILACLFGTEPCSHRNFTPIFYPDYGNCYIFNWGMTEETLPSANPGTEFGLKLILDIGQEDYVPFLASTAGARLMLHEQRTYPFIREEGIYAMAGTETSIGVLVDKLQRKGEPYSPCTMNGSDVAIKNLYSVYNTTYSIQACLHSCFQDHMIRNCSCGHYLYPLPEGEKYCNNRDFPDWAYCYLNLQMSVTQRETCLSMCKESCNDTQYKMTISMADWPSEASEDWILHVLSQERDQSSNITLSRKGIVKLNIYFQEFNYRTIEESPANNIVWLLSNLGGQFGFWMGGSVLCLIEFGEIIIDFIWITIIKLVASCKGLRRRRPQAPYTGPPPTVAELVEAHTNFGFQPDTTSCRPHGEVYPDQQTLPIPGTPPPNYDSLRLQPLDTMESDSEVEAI
Chain of wild-type αβγ mouse epithelial sodium channel (ENaC) expressed in Xenopus oocytes (chain, as listed by the source, chain 3 of 3): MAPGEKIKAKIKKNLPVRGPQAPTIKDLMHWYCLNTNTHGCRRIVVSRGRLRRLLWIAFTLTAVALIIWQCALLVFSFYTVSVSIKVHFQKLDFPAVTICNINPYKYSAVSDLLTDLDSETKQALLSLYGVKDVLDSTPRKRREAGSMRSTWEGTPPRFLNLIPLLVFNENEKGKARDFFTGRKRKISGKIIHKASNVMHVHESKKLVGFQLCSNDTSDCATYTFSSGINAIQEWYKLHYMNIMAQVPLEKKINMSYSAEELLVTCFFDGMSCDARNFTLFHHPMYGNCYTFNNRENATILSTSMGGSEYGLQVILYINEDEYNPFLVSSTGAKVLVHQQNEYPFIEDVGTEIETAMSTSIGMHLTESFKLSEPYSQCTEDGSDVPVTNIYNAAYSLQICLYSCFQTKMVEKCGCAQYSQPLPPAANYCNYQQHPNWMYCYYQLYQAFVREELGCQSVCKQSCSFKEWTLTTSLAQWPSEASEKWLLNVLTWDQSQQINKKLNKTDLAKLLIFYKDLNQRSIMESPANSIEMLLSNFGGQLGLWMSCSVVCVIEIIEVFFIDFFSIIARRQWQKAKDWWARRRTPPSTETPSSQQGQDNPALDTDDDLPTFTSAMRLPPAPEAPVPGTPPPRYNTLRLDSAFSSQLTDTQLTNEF

Chain of endogenous ENaC in the mouse cortical collecting duct cell line mpkCCDc14 (Q9WU38 whole entry, chain 2 of 3): as the sequence (Q9WU38 whole entry, chain 2 of 3) above
Chain of endogenous ENaC in primary cultures of human airway epithelial (HAE) cells (chain, as listed by the source, chain 1 of 3): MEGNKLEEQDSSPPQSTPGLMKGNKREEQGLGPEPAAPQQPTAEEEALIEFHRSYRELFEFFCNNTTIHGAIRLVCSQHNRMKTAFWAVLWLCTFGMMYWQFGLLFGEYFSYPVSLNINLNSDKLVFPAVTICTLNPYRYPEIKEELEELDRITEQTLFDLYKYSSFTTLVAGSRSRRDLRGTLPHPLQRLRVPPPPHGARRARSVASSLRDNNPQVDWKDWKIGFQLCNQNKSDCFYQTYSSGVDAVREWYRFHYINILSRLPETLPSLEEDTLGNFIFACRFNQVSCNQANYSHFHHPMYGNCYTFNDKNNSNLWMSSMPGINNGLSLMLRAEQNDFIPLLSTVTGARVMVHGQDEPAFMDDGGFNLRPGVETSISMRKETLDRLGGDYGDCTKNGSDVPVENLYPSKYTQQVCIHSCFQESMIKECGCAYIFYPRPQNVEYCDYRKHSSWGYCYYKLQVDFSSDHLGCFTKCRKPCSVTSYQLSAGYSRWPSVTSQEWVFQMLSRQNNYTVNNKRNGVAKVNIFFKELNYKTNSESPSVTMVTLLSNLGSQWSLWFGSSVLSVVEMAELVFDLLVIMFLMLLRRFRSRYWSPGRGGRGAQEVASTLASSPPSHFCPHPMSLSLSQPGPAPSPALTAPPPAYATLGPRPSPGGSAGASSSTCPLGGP
Chain of endogenous ENaC in primary cultures of human airway epithelial (HAE) cells (P51168 whole entry, chain 2 of 3): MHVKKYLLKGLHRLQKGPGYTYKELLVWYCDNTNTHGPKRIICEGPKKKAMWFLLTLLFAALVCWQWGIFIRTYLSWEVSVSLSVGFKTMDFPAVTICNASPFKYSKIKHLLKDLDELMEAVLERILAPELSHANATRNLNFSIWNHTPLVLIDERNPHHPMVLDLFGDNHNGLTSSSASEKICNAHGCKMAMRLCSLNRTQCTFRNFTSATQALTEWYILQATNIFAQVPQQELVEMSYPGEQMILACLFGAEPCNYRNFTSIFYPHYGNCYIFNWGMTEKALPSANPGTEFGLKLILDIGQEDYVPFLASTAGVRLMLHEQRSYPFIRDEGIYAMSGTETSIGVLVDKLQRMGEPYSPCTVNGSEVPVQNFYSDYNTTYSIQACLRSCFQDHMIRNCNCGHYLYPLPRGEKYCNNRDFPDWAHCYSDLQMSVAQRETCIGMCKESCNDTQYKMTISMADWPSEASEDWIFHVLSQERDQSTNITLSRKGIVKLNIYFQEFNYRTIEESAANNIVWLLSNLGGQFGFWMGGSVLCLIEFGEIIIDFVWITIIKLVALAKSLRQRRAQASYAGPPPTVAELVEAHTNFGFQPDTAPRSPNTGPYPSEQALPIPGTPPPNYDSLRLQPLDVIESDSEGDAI
Chain of endogenous ENaC in primary cultures of human airway epithelial (HAE) cells (chain, as listed by the source, chain 3 of 3): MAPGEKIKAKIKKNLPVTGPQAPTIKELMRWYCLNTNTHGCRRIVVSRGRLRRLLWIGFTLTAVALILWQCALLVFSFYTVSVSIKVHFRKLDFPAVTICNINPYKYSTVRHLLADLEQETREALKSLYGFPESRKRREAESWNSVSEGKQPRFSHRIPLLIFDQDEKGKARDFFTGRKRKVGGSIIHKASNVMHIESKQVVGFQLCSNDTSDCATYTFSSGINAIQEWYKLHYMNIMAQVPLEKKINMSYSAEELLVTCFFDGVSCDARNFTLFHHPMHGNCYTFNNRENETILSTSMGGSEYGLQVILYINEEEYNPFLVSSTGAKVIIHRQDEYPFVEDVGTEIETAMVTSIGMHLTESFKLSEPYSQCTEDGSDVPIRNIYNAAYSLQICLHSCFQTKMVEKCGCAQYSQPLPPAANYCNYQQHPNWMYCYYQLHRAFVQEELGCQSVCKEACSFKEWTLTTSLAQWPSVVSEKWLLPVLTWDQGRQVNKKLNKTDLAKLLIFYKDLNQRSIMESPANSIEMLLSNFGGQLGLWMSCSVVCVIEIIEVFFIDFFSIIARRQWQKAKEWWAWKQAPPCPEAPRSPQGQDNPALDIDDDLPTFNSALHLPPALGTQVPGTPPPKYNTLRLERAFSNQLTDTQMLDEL

In the case of “FKGFVGKEALREILTFWLRFNNTEMDSKPLRTRANPPSKGGRE (Ac-FKGFVGKEALREILTFWLRFNNTEMDSKPLRTRANPPSKGGRE-NH2) [scrambled peptide, reference compound]”, the “inhibition of amiloride sensitive short circuit currents” value in assay [1] (increasing concentrations of peptide) is given as “minimal effect; also recorded: failed to inhibit; also recorded: only a slight inhibition”; in assay [2] it was “minimal effect; also recorded: failed to inhibit”.
On to “PLTQPRPRLADHNPLSARRRPLPAGP (Ac-PLTQPRPRLADHNPLSARRRPLPAGP-NH2) [SCR, reference compound]”, for which the “inhibition of Isc” value in assay [1] (peptide 50 μM) and in assay [3] was “did not inhibit” throughout.

B1: γ-43, synthetic 43-residue peptide corresponding to the tract Glu144-Lys186 of mouse γ ENaC (peptide)
peptide: Ac-EAGSMRSTWEGTPPRFLNLIPLLVFNENEKGKARDFFTGRKRK-NH2
With B1, in assay [4], the “IC50, inhibition of amiloride sensitive short circuit currents in mpkCCDc14 cells (FIG. 6B)” value was determined as 3.2 µM and the “IC50, inhibition of short circuit currents in mouse CCD cells (FIG. 18B)” value worked out at 3.2 µM. Moreover, in assay [5], the “IC50, inhibition of amiloride sensitive short circuit currents in primary HAE cells (FIG. 7)” value stood at 1.9 µM and the “IC50, inhibition of short circuit currents in primary cultures of HAE cells (FIG. 18C)” value is 2 µM.

B2: 8-residue fragment LPHPLQRL of α-26 (peptide)
peptide: LPHPLQRL
As to B2, the “IC50, inhibition of mouse ENaCs expressed in oocytes” value in assay [6] is approximately 1 µM.

B3: α-26, synthetic 26-mer peptide representing the tract Asp206-Arg231 released from the mouse ENaC α subunit by furin cleavage (peptide)
peptide: Ac-DLRGALPHPLQRLRTPPPPNPARSAR-NH2
B3: the “IC50, inhibition of amiloride-sensitive short circuit current (Isc) in mpkCCDc14 monolayers (FIG. 5B)” value in assay [4] stood at 100 µM. Moreover, the “IC50, inhibition of amiloride-sensitive short circuit current (Isc) in HAE monolayers (FIG. 5A)” value in assay [5] came out at 46 µM. Moreover, in assay [6], the “IC50, inhibition of amiloride-sensitive whole cell Na+ current in oocytes, holding potential -20 mV” value is 2.9 µM; the “IC50, inhibition of amiloride-sensitive whole cell Na+ current in oocytes, holding potential -100 mV” value amounted to 2.9 µM; the “IC50, inhibition of amiloride-sensitive whole cell Na+ current, two-electrode voltage clamp in Xenopus oocytes (FIG. 3A; holding potential -60 mV, value repeated in the same paragraph)” value is 2.8 µM.
